The text below walks through data of PMC6047819, “Small-angle X-ray scattering study of the kinetics of light-dark transition in a LOV protein” (PLoS ONE, 2018).

Data set [1] deals with the molecule itself. Kind of data set: SAXS; steady state, fully populated light state (continuous blue-light LED, 450 nm); beamline BM29; 20°C; 10 mM Tris, 10 mM NaCl, pH 7; data of 2.5 and 6.1 mg/mL merged; molecular mass from QR after Rambo and Tainer.
Data set [2] concerns the molecule itself. As to the kind of experiment: crystal structure; dark-state crystal structure of the double mutant, FMN bound (PDB 6GG9).

Numbering of substitutions follows the chain as printed. Numbers in names are those of the source.

B1: PpSB1-LOV-R66I (natural protein, Pseudomonas putida)
chain: MINAQLLQSMVDASNDGIVVAEKEGDDTILIYVNAAFEYLTGYSRDEILYQDCRFLQGDDRDQLGIARIRKAMAEGRPCREVLRNYRKDGSAFWNELSITPVKSDFDQRTYFIGIQKDVSRQVELERELAELRARPKPDERA
notes: PpSB1-LOV, short LOV protein of Pseudomonas putida: LOV core domain flanked by N- and C-terminal helices; mutant R66I; It says that the N-terminal 20 and the C-terminal 8-9 amino acids are disordered in the wild-type crystal structures; also called PpSB1-R66I; PpSB1-LOV mutant R66I; source: purified (Ni-NTA Superflow, SEC on Superdex 200)
In the case of B1, the stoichiometry N (commonly the number of molecules, sites or subunits per partner or assembly) in data set [1] is 2.

B2: PpSB1-LOV-R61H/R66I (natural protein, Pseudomonas putida)
chain: B1 chain with R61H
notes: PpSB1-LOV, short LOV protein of Pseudomonas putida; double mutant R61H/R66I; dark-state crystal structure PDB 6GG9; also called PpSB1-R61H/R66I-LOV; double mutant
B2: the binding result in data set [2] was “binds”.
